According to US20110085970A1 (published 2011):

B1: 12E1 human monoclonal antibody (anti-O8E / anti-B7-H4) (antibody, V domains shown)
VH: EVQLVESGGGLVQPGRSLRLSCVASGFTFDDYAMHWVRQAPGKGLEWVSGISWNSGSIGYADSVKGRFTISRDNAKNSLYLQMNSLRAEDTALYYCTKALYGSGSSDFYYYGMDVWGQGTTVAVSS
VL: EIVLTQSPATLSLSPGERATLSCRASQSVSSYLAWYQQKPGQAPRLLIYDASNRATGIPARFSGSGSGTDFTLTISSLEPEDFAVYYCQQRRTFGQGTKVEIK
notes: Hybridoma-derived fully human IgG with a kappa light chain (VK L6/JK1); also called 12E1.G9
B2: 1G11 human monoclonal antibody (anti-O8E / anti-B7-H4) (antibody, V domains shown)
VH: QVQLQQWGAGLLKPSETLSLTCAVYGGSFSDYFWTWIRQPPGKGLEWIGEINHSGTTNYNPSLKSRVTISADTSKNQFSLRLSSVTAADTAVYYCARLSSWSNWAFEYWGQGTLVTVSS
VL: EIVLTQFPGTLSLSPGERATLSCRASQSVSSTYLAWYQQKPGQAPRVLIYGASRRATGIPDRFSGSGSGTDFTLTISRLEPEDFAVYYCQQYGSSPLTFGGGTKVEIK
notes: Hybridoma-derived fully human IgG with a kappa light chain (VK A27); also called 1G11.H11-FITC; 1G11.H1
B3: 13D12 human monoclonal antibody (anti-O8E / anti-B7-H4) (antibody, V domains shown)
VH: QVQLQQWGAGLLKPSETLSLTCAVYGGSFSGYYWSWIRQPPGKGLEWIGKINHSGSTNYNPSLKSRVTISVDTSKNQFSLKLNSVTAADTAVYYCARELRYFENYYYGMDVWGQGTTVTVSS
VL: not shown
notes: Hybridoma-derived fully human IgG with a kappa light chain (VK A27); also called 13D12.G10

Experiments:
[1] = target: T1, Recombinant Penta-B7H4 protein with a C-9 tag (human, UniProt Q7Z7D3 25-259); experiment: ELISA: anti-mouse Fc coat, monoclonal anti-C9 at 0.6 ug/ml, Penta-B7H4 titrated (varied component), human antibody fixed at 1 ug/ml
T1 construct: also called Penta-O8E; Penta-B7H4-C9; not shown: 'Penta' part and C-9 tag
T1 sequence: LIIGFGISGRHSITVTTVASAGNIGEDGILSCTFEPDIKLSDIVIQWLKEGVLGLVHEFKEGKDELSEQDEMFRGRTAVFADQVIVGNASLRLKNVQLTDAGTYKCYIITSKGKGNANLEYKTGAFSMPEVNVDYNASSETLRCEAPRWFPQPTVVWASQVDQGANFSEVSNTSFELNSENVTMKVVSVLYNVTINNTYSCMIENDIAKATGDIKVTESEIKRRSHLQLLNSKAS

[2] = target: T2, human O8E (B7-H4) expressed on cells (human, UniProt Q7Z7D3 25-282); experiment: titration of labelled antibody on O8E-transfected cells (Scatchard set-up), sigmoidal dose response fit; BOTTOM and TOP fixed for incomplete curve
T2 construct: Full length O8E on transfected HEK, CHO and SKOV3 cells, or endogenous on SKBR3 and ZR-75 cells and in human tumour biopsies; also called B7S1; B7x
T2 sequence: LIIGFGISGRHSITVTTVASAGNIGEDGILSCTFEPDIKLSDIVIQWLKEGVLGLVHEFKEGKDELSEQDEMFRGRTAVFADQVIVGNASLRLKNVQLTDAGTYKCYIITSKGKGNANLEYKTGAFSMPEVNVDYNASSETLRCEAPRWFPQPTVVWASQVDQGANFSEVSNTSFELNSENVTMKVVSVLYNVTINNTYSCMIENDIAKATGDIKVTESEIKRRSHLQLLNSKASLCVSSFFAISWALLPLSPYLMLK

[3] = target: T2, human O8E (B7-H4) expressed on cells; experiment: titration of labelled antibody on O8E-transfected cells (Scatchard set-up), sigmoidal dose response fit
Description: HEK cells were transfected with full length O8E using standard techniques and grown in RPMI media containing 10% fetal bovine serum (FBS). […] Millipore plates (MAFB NOB) were coated with 1% nonfat dry milk in water and stored a 4° C. overnight. The plates were washed three times with 0.2 ml of binding buffer. Fifty microliters of buffer alone was added to the maximum binding wells (total binding). Twenty-five microliters of buffer alone was added to the control wells (non-specific binding). Varying concentration of ¹²⁵I-anti-O8E antibody was added to all wells in a volume of 25 μl. (In some cases FITC labeled antibodies were used for the titration since unlabeled material was not available, binding may be compromised in these instances.) Varying concentrations of unlabeled antibody at 100 fold excess was added in a volume of 25 μl to control wells and 25 μl of O8E transfected CHO cells (2×10⁶ cells/ml) in binding buffer were added to all wells. The plates were incubated for 2 hours at 200 RPM on a shaker at 4° C. At the completion of the incubation the Millipore plates were washed three times with 0.2 ml of cold wash buffer (24 mM Tris pH 7.2, 500 mM NaCl, 2.7 mM KCl, 2 mM Glucose, 1 mM CaCl₂, 1 mM MgCl₂, 0.1% BSA.). The filters were removed and counted in a gamma counter. […]

Binder	EC50 (read off the curve) [1]	EC50 [2]	EC50 [3]
B1	~0.05 µg/mL	~19.8 nM	
B2			1.69 nM
B3			0.746 nM
